From patent US20250270343A1 (Alector, published 2025) come the findings set out here.

Sequences and labels used below:
T1: full-length untagged human GPNMB expressed on cells (human, UniProt Q14956 23-572)
T1 sequence: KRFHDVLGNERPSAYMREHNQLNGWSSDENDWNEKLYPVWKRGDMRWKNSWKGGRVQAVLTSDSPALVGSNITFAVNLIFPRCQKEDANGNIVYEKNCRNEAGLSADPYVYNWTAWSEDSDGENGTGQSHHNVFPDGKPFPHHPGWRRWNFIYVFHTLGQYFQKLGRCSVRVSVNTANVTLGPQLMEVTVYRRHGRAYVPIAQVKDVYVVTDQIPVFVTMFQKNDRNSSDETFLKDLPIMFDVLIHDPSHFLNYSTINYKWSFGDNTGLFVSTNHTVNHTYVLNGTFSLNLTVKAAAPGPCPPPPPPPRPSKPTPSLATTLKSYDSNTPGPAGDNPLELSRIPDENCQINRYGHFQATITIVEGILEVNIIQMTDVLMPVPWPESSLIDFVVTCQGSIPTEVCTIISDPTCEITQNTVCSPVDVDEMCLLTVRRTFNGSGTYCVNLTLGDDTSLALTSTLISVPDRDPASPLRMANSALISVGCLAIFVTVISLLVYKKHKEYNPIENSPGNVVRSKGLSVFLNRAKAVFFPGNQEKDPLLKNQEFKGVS

T2: soluble cynomolgus GPNMB (recombinant extracellular domain) (cynomolgus, UniProt Q14956 23-499 (human entry), limits assumed)
T2 chain: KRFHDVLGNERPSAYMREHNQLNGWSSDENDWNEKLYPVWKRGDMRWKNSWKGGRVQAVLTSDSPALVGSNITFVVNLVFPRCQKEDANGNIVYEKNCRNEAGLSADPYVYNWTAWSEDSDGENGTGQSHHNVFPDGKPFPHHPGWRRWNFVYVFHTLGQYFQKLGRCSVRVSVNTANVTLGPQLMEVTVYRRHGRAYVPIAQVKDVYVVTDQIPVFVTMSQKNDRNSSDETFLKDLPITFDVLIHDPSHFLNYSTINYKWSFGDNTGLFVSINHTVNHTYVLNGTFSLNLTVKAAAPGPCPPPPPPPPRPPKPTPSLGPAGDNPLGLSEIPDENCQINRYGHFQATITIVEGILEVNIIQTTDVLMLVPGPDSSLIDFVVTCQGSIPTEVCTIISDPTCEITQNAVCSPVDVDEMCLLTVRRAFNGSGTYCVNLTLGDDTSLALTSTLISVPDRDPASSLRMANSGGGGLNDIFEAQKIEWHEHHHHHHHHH

T3: soluble mouse GPNMB (recombinant extracellular domain) (mouse, UniProt Q99P91 23-502)
T3 construct: also called moGPNMB; not shown: C-terminal polyhistidine or Avi-His tag
T3 sequence: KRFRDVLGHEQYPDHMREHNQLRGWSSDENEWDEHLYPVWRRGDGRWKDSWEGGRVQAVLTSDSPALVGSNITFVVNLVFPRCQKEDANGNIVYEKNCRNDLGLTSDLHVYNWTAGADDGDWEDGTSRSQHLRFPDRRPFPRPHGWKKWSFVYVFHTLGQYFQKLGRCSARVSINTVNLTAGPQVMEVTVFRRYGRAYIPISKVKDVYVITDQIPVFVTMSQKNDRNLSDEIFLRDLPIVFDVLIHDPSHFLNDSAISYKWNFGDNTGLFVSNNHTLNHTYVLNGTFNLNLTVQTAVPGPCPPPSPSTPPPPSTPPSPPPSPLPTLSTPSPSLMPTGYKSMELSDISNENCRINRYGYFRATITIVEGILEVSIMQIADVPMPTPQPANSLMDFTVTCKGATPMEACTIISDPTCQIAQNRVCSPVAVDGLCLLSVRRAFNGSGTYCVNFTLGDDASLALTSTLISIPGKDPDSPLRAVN

T4: soluble human GPNMB (recombinant extracellular domain) (human, UniProt Q14956 23-498)
T4 construct: also called huGPNMB; recombinant human GPNMB extracellular domain; not shown: C-terminal polyhistidine or Avi-His tag
T4 sequence: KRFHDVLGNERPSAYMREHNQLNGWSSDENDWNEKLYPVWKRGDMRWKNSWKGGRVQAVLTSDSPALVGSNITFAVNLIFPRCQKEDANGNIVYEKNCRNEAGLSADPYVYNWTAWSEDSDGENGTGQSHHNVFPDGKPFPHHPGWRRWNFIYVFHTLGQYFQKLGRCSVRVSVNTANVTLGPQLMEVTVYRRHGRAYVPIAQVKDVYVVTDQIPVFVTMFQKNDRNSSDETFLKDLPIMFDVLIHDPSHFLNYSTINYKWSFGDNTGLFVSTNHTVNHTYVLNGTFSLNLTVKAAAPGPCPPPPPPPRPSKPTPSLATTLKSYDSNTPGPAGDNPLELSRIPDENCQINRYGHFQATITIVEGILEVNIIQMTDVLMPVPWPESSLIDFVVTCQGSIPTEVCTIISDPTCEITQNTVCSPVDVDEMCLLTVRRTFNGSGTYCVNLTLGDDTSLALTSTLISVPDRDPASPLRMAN

B1: anti-GPNMB antibody GPN-82 (antibody, V domains shown)
VH: QVQLQESGPGLVKPSETLSLTCTVSGISITTGNYRWSWIRQPPGKGLEWIGYIYYSGTIIYNPSLKSRVTITRDTSKNQFSLELSSVTAADTAVYYCARDLTHWYFDVWGQGTLVTVSS
VL: DIVMTQSPDSLAVSLGERATINCKSSRSVDYYGIGFLNWYQQKPGQPPKLLIYATSTQGSGVPDRFSGSGSGTDFTLTISSLQAEDVAVYYCQQQKEVPPTFGGGTKVEIK
B2: anti-GPNMB antibody GPN-95 (antibody, V domains shown)
VH: QVQLVQSGAEVKKPGASVKVSCKASGYTFTSYWMHWVRQAPGQGLEWMGEINPYDQRTNYAQKFQGRVTMTVDKSTSTVYMELSSLRSEDTAVYYCARSTGNYAWFAYWGQGTLVTVSS
VL: DIVMTQSPDSLAVSLGERATINCKTSQDVSPSLAWYQQKPGQPPKLLIYSARYRYTGVPDRFSGSGSGTDFTLTISSLQAEDVAVYYCQQHYSIPLQFGGGTKVEIK
notes: also called PGN-95
B3: anti-GPNMB antibody GPN-93 (antibody, V domains shown)
VH: B2 VH
VL: B2 VL with R52S, Y53K
B4: anti-GPNMB antibody GPN-94 (antibody, V domains shown)
VH: B2 VH
VL: B2 VL with R52S, Y53K, Q97T
B5: anti-GPNMB antibody GPN-92 (antibody, V domains shown)
VH: B2 VH with Y54S, Q56G, T100G
VL: B2 VL with T25A, R52S, Q97T
notes: humanized GPN-08

Numbering of substitutions follows the chain as printed.

One assay concerns the target T1, full-length untagged human GPNMB …. The assay is described as follows: cell-based or functional assay.
Consider B1, for which the “Inflammasome: Fold Decrease IL-1β (max response at 0.3 µg/ml)” value (“Inflammasome: Fold Decrease IL-1β” for short) was 0.378 fold.

B2: the “Inflammasome: Fold Decrease IL-1β” value was found to be 0.45 fold.

Consider B3, for which the “Inflammasome: Fold Decrease IL-1β” value was found to be 0.594 fold.

Consider B4, for which the “Inflammasome: Fold Decrease IL-1β” value came to 0.532 fold.

A further assay has the same target. Kind of assay: cell-based or functional assay. This is another data set of the same source.
As for B1, the “EC50 GCase” value was 0.365 nM, the “EC50 Lyso Tracker” value worked out at 0.64 nM, the “Fold Decrease Lyso Tracker (max response at 1 µg/ml)” value amounted to 0.569 fold and the “Fold Increase GCase (max response at 1 µg/ml)” value (“Fold Increase GCase” for short) turned out to be 1.54 fold.

Take B5: the “EC50 GCase” value was 0.27 nM and the “Fold Increase GCase” value was determined as 1.25 fold.

Take B2: the “EC50 GCase” value was 0.23 nM and the “Fold Increase GCase” value came out at 1.33 fold.

In the case of B3, the “EC50 GCase” value came out at 0.5 nM and the “Fold Increase GCase” value came to 1.45 fold.

With B4, the “EC50 GCase” value turned out to be 0.54 nM and the “Fold Increase GCase” value came to 1.4 fold.

For another assay the target is unchanged. Kind of assay: cell-based or functional assay. The source holds these as a separate data set.
In the case of B1, the “EC50 PDL1” value turned out to be 1.94 nM, the “Fold Increase CD40 (max response at 1 µg/ml)” value (from here on “Fold Increase CD40”) came to 2.29 fold and the “Fold Increase PDL1 (max response at 1 µg/ml)” value (“Fold Increase PDL1” for short) turned out to be 4.6 fold.

As for B5, the “EC50 PDL1” value is 1.36 nM, the “Fold Increase CD40” value was 1.59 fold and the “Fold Increase PDL1” value is 1.99 fold.

B2: the “EC50 PDL1” value turned out to be 0.7 nM, the “Fold Increase CD40” value stood at 1.74 fold and the “Fold Increase PDL1” value worked out at 1.97 fold.

With B3, the “Fold Increase CD40” value was 1.87 fold and the “Fold Increase PDL1” value amounted to 2.18 fold.

Regarding B4, the “EC50 PDL1” value came out at 1.14 nM, the “Fold Increase CD40” value was 1.72 fold and the “Fold Increase PDL1” value stood at 1.88 fold.

Another assay has the same target. Kind of assay: FACS titration, FS293-huGPNMB+ cells. Here is the method: Affinity matured anti-GPNMB antibodies of the present disclosure were examined to determine their ability to bind human and mouse GPNMB expressed on FS293-huGPNMB+ or B16F10 cells, respectively. Cell-based affinity measurements were performed to ascertain the apparent affinities of anti-GPNMB antibodies to cell-surface expressed GPNMB. Serial dilutions of anti-GPNMB antibodies of the present disclosure were added to 100,000 FS293-huGPNMB+ or B16F10 cells and allowed to achieve binding equilibrium at 4° C. After addition of fluorescently labeled secondary antibody and brief washing steps, MFI values as a function of titrated antibody concentration were recorded via FACS analysis. Equilibrium binding curves were fit using nonlinear regression analysis with Graphpad Prism 6 software.
The molecule B2 came in with an EC50 of 0.181 nM. This counts as sub-nanomolar.

Regarding B3, the EC50 was determined as 0.568 nM.

Take B4: the EC50 is 0.186 nM.

For another assay, the target named is T2, soluble cynomolgus GPNMB (recombinant …). The assay is described as follows: SPR Biacore, IgG captured. Here is the method: (§1) Binding kinetics of the humanized and affinity matured anti-GPNMB antibodies described above were evaluated using the Biacore T200 (Cytiva). Briefly, IgGs were diluted to 10 μg/mL and captured using a Protein A/G (ThermioFisher, #21186) surface on a CM5 chip that was prepared by amine coupling according to the instrument manufacturer's recommendations. The captured antibodies were tested for their ability to bind human, cynomolgus monkey, and mouse GPNMB recombinant proteins as follows.
(§2) Human, cynomolgus, and mouse GPNMB analytes were diluted in running buffer (HBS-EP+, Teknova, #8022, with 0.5 mg/ml BSA, MP Biomedicals LLC, #820451), to a concentration of 300 nM, then diluted 3-fold serially to 100 nM, 33 nM, and 11 nM. Each sample was injected for 2 minutes to allow association, followed by dissociation in buffer alone for 10 minutes. Each sample injection was followed by the regeneration of the chip with three 30-second injections of 10 mM glycine, pH 1.7. Fresh antibody was captured at the beginning of each cycle.
(§3) Data were analyzed using Biacore evaluation software to generate kinetic constants. The equilibrium dissociation constants (KD) were calculated from the fitted association and dissociation rate constants (k-on and k-off) for each of the anti-GPNMB antibodies.
As to B1, the Kd amounted to 13.5 nM, the koff worked out at 0.0022 s⁻¹ and the kon was 160000 M⁻¹ s⁻¹.

On to B5, for which the Kd was found to be 67.8 nM, the koff turned out to be 0.0057 s⁻¹ and the kon came to 83000 M⁻¹ s⁻¹.

As for B2, the Kd is 8.3 nM, the koff was determined as 0.0006 s⁻¹ and the kon came out at 71000 M⁻¹ s⁻¹.

With B3, the Kd was determined as 10.6 nM, the koff was 0.00071 s⁻¹ and the kon was determined as 67000 M⁻¹ s⁻¹.

On to B4, for which the Kd turned out to be 6.5 nM, the koff amounted to 0.00051 s⁻¹ and the kon turned out to be 78000 M⁻¹ s⁻¹.

The next assay deals with T3, soluble mouse GPNMB (recombinant …). The assay is described as follows: SPR Biacore, IgG captured. Here is the method: as §1, §2, §3
With B1, the Kd was determined as 2.6 nM, the koff was 0.00039 s⁻¹ and the kon is 150000 M⁻¹ s⁻¹.

The next assay concerns the target T4, soluble human GPNMB (recombinant …). Kind of assay: SPR Biacore, IgG captured. Here is the method: as §1, §2, §3
(In general: In SPR one partner is held on a chip, and binding of the other changes the refractive index at the surface.)
Regarding B1, the Kd came out at 11.9 nM, the koff worked out at 0.0024 s⁻¹ and the kon was determined as 200000 M⁻¹ s⁻¹.

In the case of B5, the Kd came out at 66.5 nM, the koff stood at 0.005 s⁻¹ and the kon turned out to be 75000 M⁻¹ s⁻¹.

Regarding B2, the Kd was found to be 7.3 nM, the koff amounted to 0.00053 s⁻¹ and the kon came out at 73000 M⁻¹ s⁻¹.

B3: the Kd worked out at 8.7 nM, the koff was 0.00059 s⁻¹ and the kon stood at 68000 M⁻¹ s⁻¹.

B4: the Kd stood at 5.4 nM, the koff is 0.00042 s⁻¹ and the kon was 78000 M⁻¹ s⁻¹.

The target of a further assay is T3, soluble mouse GPNMB (recombinant …). Kind of assay: SPR Biacore T200, IgG captured on Protein A/G; nb = no binding observed.
In the case of B5, the binding result is “no binding (tested: 300 nM highest analyte concentration)”.

With B2, the binding result was “no binding (tested: 300 nM highest analyte concentration)”.

On to B3, for which the binding result is listed as “no binding (tested: 300 nM highest analyte concentration)”.

For B4, the binding result is listed as “no binding (tested: 300 nM highest analyte concentration)”.

As usually defined, the EC50 is the concentration giving half of the maximal effect. Higher therefore signals a need for much substance. What is called Kd is the constant that tells how readily two partners part at equilibrium. What is called koff is a measure of how fast the partners let go of each other. A word on the kon: it is a measure of how fast the partners come together.
